# Source: patent US20240209062A1 (INVETX, published 2024)
# Changes are numbered by the printed parent chain. Names may count otherwise.
# B1: IgG with feline IgG1a Fc variant S428L, I377Y (antibody)
# heavy: DVQLVESGGDLVKPGGSLRLTCVASGLSLTSDSMSWVRQAPGKGLQWVSTLWSNRGTYYTDSVKGRFTISKDNAENTLYLQMNNLKTEDTATYYCASIYYYEADYLHWYFDFWGQGALVTVSSASTTAPSVFPLAPSCGTTSGATVALACLVLGYFPEPVTVSWNSGALTSGVHTFPAVLQASGLYSLSSMVTVPSSRWLSDTFTCNVAHPPSNTKVDKTVRKTDHPPGPKPCDCPKCPPPEAAGGPSIFIFPPKPKDTLSISRTPEVTCLVVDLGPDDSDVQITWFVDNTQVYTAKTSPREEQFNSTYRVVSVLPILHQDWLKGKEFKCKVNSKSLPSPIERTISKAKGQPHEPQVYVLPPAQEELSRNKVSVTCLIKSFHPPDYAVEWEITGQPEPENNYRTTPPQLDSDGTYFVYSKLSVDRSHWQRGNTYTCSVLHEALHSHHTQKSLTQSPG
# light: EIQMTQSPTSLSASVGDRVTITCRASEGIANNLSWYQQTPGKAPKLLIYATSNLHSGVPSRFSGSGSGTDFTLTISSLQPEDFATYYCQQGFKWPLTFGGGTKLEITRSDAQPSVFLFQPSLDELHTGSASIVCILNDFYPKEVNVKWKVDGVVQNKGIQESTTEQNSKDSTYSLSSTLTMSSTEYQSHEKFSCEVTHKSLASTLVKSFNRSECQRE
# notes: Printed '1377Y' read as I377Y; IgG1a constant domain with MALA mutations (M234A, L244A as printed); variable domains from WO 2023/97275; also called S428L, 1377Y
# B2: IgG with feline IgG1a Fc variant S428M, L309D (antibody)
# heavy: B1 heavy with L318D, Y386I, L439M
# light: B1 light
# notes: IgG1a constant domain with MALA mutations (M234A, L244A as printed); variable domains from WO 2023/97275
# B3: IgG with feline IgG1a Fc variant S428M, I377L (antibody)
# heavy: B1 heavy with Y386L, L439M
# light: B1 light
# notes: Printed '1377L' read as I377L; IgG1a constant domain with MALA mutations (M234A, L244A as printed); variable domains from WO 2023/97275; also called S428M, 1377L
# B4: IgG with feline IgG1a Fc variant S428M, R392E (antibody)
# heavy: B1 heavy with Y386I, R403E, L439M
# light: B1 light
# notes: as for B2
# B5: IgG with feline IgG1a Fc variant S428L, L309D (antibody)
# heavy: B1 heavy with L318D, Y386I
# light: B1 light
# notes: as for B2
# B6: IgG with feline IgG1a Fc variant S428M, R301L (antibody)
# heavy: B1 heavy with R310L, Y386I, L439M
# light: B1 light
# notes: as for B2
# B7: IgG with feline IgG1a Fc variant S428M, L309V (antibody)
# heavy: B1 heavy with L318V, Y386I, L439M
# light: B1 light
# notes: as for B2
# B8: IgG with feline IgG1a Fc variant S428M, T286D (antibody)
# heavy: B1 heavy with T295D, Y386I, L439M
# light: B1 light
# notes: as for B2
# B9: IgG with feline IgG1a Fc variant S428L, R392E (antibody)
# heavy: B1 heavy with Y386I, R403E
# light: B1 light
# notes: as for B2
# B10: IgG with feline IgG1a Fc variant S428L, T286D (antibody)
# heavy: B1 heavy with T295D, Y386I
# light: B1 light
# notes: as for B2
# B11: IgG with feline IgG1a Fc variant S428M, T286E (antibody)
# heavy: B1 heavy with T295E, Y386I, L439M
# light: B1 light
# notes: as for B2
# B12: IgG with feline IgG1a Fc variant S428M, R392D (antibody)
# heavy: B1 heavy with Y386I, R403D, L439M
# light: B1 light
# notes: as for B2
# B13: IgG with feline IgG1a Fc variant S428L, R301L (antibody)
# heavy: B1 heavy with R310L, Y386I
# light: B1 light
# notes: as for B2
# B14: IgG with feline IgG1a Fc variant S428L, R301Y (antibody)
# heavy: B1 heavy with R310Y, Y386I
# light: B1 light
# notes: as for B2
# B15: IgG with feline IgG1a Fc variant S428M, R301V (antibody)
# heavy: B1 heavy with R310V, Y386I, L439M
# light: B1 light
# notes: as for B2
# B16: IgG with feline IgG1a Fc variant S428M, Q311V (antibody)
# heavy: B1 heavy with Q320V, Y386I, L439M
# light: B1 light
# notes: as for B2
# B17: IgG with feline IgG1a Fc variant S428M, I377Y (antibody)
# heavy: B1 heavy with L439M
# light: B1 light
# notes: Printed '1377Y' read as I377Y; IgG1a constant domain with MALA mutations (M234A, L244A as printed); variable domains from WO 2023/97275; also called S428M, 1377Y
# B18: IgG with feline IgG1a Fc variant S428M, R301Y (antibody)
# heavy: B1 heavy with R310Y, Y386I, L439M
# light: B1 light
# notes: as for B2
# B19: IgG with feline IgG1a Fc variant S428M (antibody)
# heavy: B1 heavy with Y386I, L439M
# light: B1 light
# notes: as for B2
# B20: IgG with feline IgG1a Fc variant S428M, L309E (antibody)
# heavy: B1 heavy with L318E, Y386I, L439M
# light: B1 light
# notes: as for B2
# B21: IgG with feline IgG1a Fc variant S428L, R301V (antibody)
# heavy: B1 heavy with R310V, Y386I
# light: B1 light
# notes: as for B2
# B22: IgG with feline IgG1a Fc variant S428L, R392D (antibody)
# heavy: B1 heavy with Y386I, R403D
# light: B1 light
# notes: as for B2
# Target: T1, feline FcRn (soluble portion of large subunit p51 isoform X1 with C-terminal 6xHis-tag, co-expressed with … (feline, UniProt Q5MGS7 21-118))
# T1 construct: Heterodimer made by co-expression in CHO cells, purified on HisTrap FF; also called FcRn complex
# T1 sequence (chain, as listed by the source limits assumed, chain 1 of 2): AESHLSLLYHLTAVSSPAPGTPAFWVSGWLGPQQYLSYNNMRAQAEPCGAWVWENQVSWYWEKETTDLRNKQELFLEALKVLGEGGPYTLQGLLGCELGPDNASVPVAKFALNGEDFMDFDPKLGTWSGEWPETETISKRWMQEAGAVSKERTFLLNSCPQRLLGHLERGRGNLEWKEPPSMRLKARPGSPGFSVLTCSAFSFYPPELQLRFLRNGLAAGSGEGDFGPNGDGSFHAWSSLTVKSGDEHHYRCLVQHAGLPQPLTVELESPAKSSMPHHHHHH
# T1 sequence (Q5MGS7 other isoform, or with tags, fused parts or gaps limits assumed, chain 2 of 2): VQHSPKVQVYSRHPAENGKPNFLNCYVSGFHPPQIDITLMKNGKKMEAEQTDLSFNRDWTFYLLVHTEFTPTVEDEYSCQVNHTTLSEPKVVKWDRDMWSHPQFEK
# Test: SPR, Biacore T200, IgG captured on Protein L chip, feline FcRn flowed over, pH 5.9, 1:1 fit
# Procedure, shortened: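 Biacore T200; antibody variants captured via kappa chain on Protein L chip (10 μL/min, 60 s), feline FcRn injected at 30 μL/min, 120 s contact, 600 s dissociation, in PBS-P+ running buffer at pH 5.9. Glycine pH 1.7 regeneration; kinetics fitted to 1:1 model.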
Binder,Kd [nM],koff [s⁻¹],kon [M⁻¹ s⁻¹]
B1,107,0.117,1.09e+06
B2,177,0.104,592000
B3,76.2,0.0751,981000
B4,97.8,0.0766,784000
B5,200,0.12,597000
B6,103,0.0835,809000
B7,31.3,0.0358,1.15e+06
B8,34.9,0.0372,1.07e+06
B9,96.5,0.0772,801000
B10,33.4,0.0333,1e+06
B11,27.4,0.0292,1.07e+06
B12,101,0.0795,789000
B13,115,0.116,1.01e+06
B14,99.1,0.0706,712000
B15,98.5,0.0801,812000
B16,28.4,0.0319,1.12e+06
B17,70.8,0.0636,900000
B18,98.7,0.082,830000
B19,70.1,0.0702,1.01e+06
B20,45.6,0.0413,905000
B21,109,0.0832,763000
B22,104,0.0934,904000
